From article PMC10279719 (Nature Communications, 2023) come the findings set out here.

What all share (details): both partners purified
Assay [1] has as its target T1, PEAK1^IDR1 (residues 1082-1746), from insect cells, phosphorylated by Src (human, UniProt Q9H792 1082-1746, phosphotyrosine at Y1107 (by Src in vitro, shown by MS/MS); other Src sites not stated; biotin (EZ-Link NHS-PEG4-Biotin, 1:1 molar ratio)).
T1 construct: human PEAK1, UniProt Q9H792, residues 1082-1746; also called PEAK1-IDR1 (+ Src phosphorylation); source: Sf21 insect cells, purified; phosphorylated in vitro with recombinant Src kinase domain
T1 sequence (looked up): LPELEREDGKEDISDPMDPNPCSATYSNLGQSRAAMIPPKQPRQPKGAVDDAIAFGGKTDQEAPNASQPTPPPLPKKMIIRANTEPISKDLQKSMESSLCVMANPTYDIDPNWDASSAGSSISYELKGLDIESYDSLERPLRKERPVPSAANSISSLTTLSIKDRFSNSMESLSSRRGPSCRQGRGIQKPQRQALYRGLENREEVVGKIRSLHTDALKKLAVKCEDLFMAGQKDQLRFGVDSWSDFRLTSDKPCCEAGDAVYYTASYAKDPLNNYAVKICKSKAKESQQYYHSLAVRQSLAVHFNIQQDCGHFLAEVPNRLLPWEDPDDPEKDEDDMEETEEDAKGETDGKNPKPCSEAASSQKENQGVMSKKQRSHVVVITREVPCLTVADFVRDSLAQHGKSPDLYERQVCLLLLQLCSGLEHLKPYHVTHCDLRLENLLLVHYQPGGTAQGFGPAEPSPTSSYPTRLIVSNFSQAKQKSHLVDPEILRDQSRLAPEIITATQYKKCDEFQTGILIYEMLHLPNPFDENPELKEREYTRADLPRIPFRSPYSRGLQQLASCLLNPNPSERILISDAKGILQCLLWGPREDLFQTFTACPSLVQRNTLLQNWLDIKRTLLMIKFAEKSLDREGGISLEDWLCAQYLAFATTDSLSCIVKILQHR
In words: SPR; biotinylated PEAK proteins (with or without Src phosphorylation) captured with a biotin CAPture kit, CrkII NSH3 as analyte; Biacore 8K+, 20 °C, HBS-TP (150 mM NaCl); 1 M NaCl regeneration; steady state. In general terms: SPR reads the build-up and loss of mass on a sensor chip optically.

For assay [2], the target named is T2, PEAK2^IDR1 (residues 802-1406), from insect cells (human, UniProt Q86YV5 802-1406, phosphorylation of the tandem site 14-3-3 motif (RAASSP) found by proteomic analysis; biotin (EZ-Link NHS-PEG4-Biotin, 1:1 molar ratio)).
T2 construct: human PEAK2 (SgK223, PRAG1), UniProt Q86YV5, residues 802-1406; Purifies as a homodimer
T2 sequence (looked up): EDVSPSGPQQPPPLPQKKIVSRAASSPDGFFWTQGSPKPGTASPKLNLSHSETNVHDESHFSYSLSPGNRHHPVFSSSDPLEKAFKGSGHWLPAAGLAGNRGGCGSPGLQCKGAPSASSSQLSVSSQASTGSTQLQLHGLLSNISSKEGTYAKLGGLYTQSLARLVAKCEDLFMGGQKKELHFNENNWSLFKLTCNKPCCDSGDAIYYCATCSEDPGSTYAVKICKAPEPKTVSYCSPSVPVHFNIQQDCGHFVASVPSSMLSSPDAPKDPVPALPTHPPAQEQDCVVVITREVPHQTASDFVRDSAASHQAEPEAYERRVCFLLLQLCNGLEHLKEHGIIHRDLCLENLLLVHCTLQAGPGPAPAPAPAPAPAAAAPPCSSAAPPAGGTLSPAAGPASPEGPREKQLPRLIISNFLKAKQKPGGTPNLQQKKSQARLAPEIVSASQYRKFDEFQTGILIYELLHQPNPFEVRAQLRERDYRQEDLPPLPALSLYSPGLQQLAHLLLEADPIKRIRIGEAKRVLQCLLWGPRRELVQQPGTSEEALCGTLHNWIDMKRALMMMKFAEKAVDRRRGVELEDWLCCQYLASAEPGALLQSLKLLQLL
Described as above.

The target of assay [3] is T3, full length PEAK3 (PEAK3^FL, residues 1-473), from E. coli, phosphorylated by Src (human, UniProt Q6ZS72 1-473, phosphorylated with Src kinase (Y24 is the site shown for PEAK3^FL by MS/MS); other Src sites not stated; biotin (EZ-Link NHS-PEG4-Biotin, 1:1 molar ratio)).
T3 construct: also called PEAK3-FL E.coli (+ Src phosphorylation); source: E. coli C41 (DE3), purified; phosphorylated in vitro with recombinant Src kinase domain
T3 sequence (looked up): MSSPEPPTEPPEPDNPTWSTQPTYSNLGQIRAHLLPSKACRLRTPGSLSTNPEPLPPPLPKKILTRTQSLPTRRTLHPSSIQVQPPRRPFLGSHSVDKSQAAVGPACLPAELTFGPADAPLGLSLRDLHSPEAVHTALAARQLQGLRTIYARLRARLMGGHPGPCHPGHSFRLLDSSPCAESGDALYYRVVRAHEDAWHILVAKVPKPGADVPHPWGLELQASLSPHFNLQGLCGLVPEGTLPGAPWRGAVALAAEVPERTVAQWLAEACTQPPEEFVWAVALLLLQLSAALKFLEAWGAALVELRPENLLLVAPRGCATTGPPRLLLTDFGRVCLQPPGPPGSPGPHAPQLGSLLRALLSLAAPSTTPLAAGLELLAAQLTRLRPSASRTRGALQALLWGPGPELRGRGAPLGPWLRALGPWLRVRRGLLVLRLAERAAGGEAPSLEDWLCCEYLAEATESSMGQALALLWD
Described as above.

The target of assay [4] is T4, PEAK3 tandem peptide, non-phosphorylated (residues 54-74) (human, N-terminal acetyl; C-terminal amide).
T4 construct: source: synthetic peptide, bought: Mimotopes (95% purity)
T4 peptide: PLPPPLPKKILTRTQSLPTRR
In words: ITC; second of two sequential titrations ('ternary'); CrkII NSH3 (400 µM) in the syringe titrated into the non-phosphorylated PEAK3 tandem peptide (16.8 µM) with the 14-3-3γ of the first titration, which did not bind, still in the cell; 25 °C, 20 mM HEPES pH 7.4, 150 mM NaCl, 1 mM TCEP. (ITC needs no label: the signal is the heat of the interaction.)

B1: CrkII N-terminal SH3 domain (CrkII^NSH3, residues 134-191) (domain or fragment, human, UniProt P46108-1 134-191, looked up)
chain: AEYVRALFDFNGNDEEDLPFKKGDILRIRDKPEEQWWNAEDSEGKRGMIPVPYVEKYR
notes: human CrkII NSH3 domain, UniProt P46108-1, residues 134-191; Amine coupled to a CM5 chip in a2; analyte in a4; in the syringe in ITC
The Kd is a measure of binding affinity in units of concentration. What is called stoichiometry N is the number of molecules, sites or subunits per partner or assembly. As to B1, the results for the equilibrium dissociation constant (Kd) in assay [1], in assay [2] and in assay [3] were 4.11 µM, 4.79 µM and 13.1 µM, respectively. Besides, the “stoichiometry N” value in assay [4] was 0.654.
